B1: TPR t1 (parent)
chain: GACCAAUCUGCCCUCAGAGCUCGAGAACAUCUUCGGAUGCAGAGGAGGCAGGCUUCGGUGGCGCGAUAGCGCCAACGUCCUCAACCUCCAAUGCAUCCCACCACAUGAUGAUGCCUGAAGAGCCUUGGUUUUUUG

Variants of: B1
Experiment: polymerase ribozyme fitness, log enrichment relative to wild type (log ratio); higher = more active; in vitro selection for triplet polymerase activity
How it was run: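 To select mutant libraries of each subunit of a heterodimeric triplet polymerase ribozyme, built by PCR and transcribed, each was annealed with a biotinylated primer, partner subunit and triplets, then incubated frozen at −7 °C. Extended constructs were gel-excised, captured on streptavidin beads and amplified by RT-PCR, in one round carried out in triplicate. Illumina sequencing of input and output libraries kept genotypes with ≥10 input reads and ≥1 read per output. Fitness is the base-2 logarithm of genotype enrichment relative to wild-type enrichment, from inverse-variance-weighted replicate averages.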

In order of falling “polymerase ribozyme fitness (log ratio)” value:
1. U9G C15U A90G C124A  1.55
2. G10C C64U A121U U131A  1.16
3. C72U U112G  0.605
4. G57U G120C  0.593
5. A37C C72G C123G  0.506
6. A16G A18C U54G A121G  0.49
7. C49A C123A  0.189
8. C13G U112A  0.148
9. G44A C53A  0.047
10. A2G U78A C79U  0.0458
11. C62U A121G U125C  -0.0117
12. C13G C72G C123U G135U  -0.121
13. G63C G120U  -0.189
14. C70U C97U  -0.226
15. A5U A6C C11U  -0.244
16. C13A U112A G120C  -0.261
17. U7G G69C  -0.478
18. G42A A119G  -0.491
19. C12U A74G U87A  -0.554
20. C53A C82G A118G  -0.931
21. G52A G57A  -1.07
22. C53G G110A  -1.16
23. G48C G61U C98U U112C  -1.23
24. A41U U87C A90U A91C  -1.28
25. G61A C82G  -1.29
26. C13U G113C  -1.31
27. A6G U78C C102A C124A U130A  -1.35
28. C12A C79A  -1.35
29. A37C C98U  -1.41
30. C3A C13U C73U  -1.44
31. C12G A18U  -1.46
32. C12G U38G G44U U78A  -1.53
33. U21G C40U U87G  -1.55
34. C76A C79U A90U A119C G120U  -1.56
35. C3U U7G G42U  -1.73
36. C12A U78C A84U  -1.77
37. C3A A41C C80U C123A  -1.77
38. C80A G120C  -2.2
39. G69C U92C  -2.26
40. U7G G69A  -2.34
41. C4A A43G G47C C64U C86G U125G G127C  -2.57
42. G19A G110A  -2.58
43. A18C C64U  -2.61
44. C89A A100U  -2.67
45. C13G G39A  -2.78
46. C62G U78G  -2.88
47. C8U C70G U125A U130G  -3.05
48. G10U C15G U21A A90G G93U G120C G135U  -3.07
49. C40U G44U U78A C89A A111C G117A G135C  -3.17
50. A41U A84G G122A  -3.29
51. U9G C34A A41G  -3.4
52. C49U G113C  -3.45
53. C20U C70G  -3.54
54. C22G C86A  -3.83
55. U9A A16G C28U U54G C89G C123G U131G  -3.93
56. A2G C89G G110U  -4.03
57. G17U G117A U129A  -4.12
58. U9A U21G A41U G45A U130G  -4.18
59. C20U C49U A90U G117U  -4.34
60. A18G C49A U92A C123A  -4.5
61. G10C A37U A84G C85A C94U C101G  -4.54
62. C20G G60C  -4.55
63. C40U G69C C85U A100G U106C U112C  -4.82
64. C12A C22U U96A  -4.9
65. A2G C11U C22G C62U U130A  -4.9
66. A6C A108G C115U  -5
67. C11A C20U C40A A43U A119U  -5.02
68. G25A C56U  -5.12
69. C12A U109A  -5.14
70. U109A U134G  -5.32
71. C20U G48A C53U C99U  -5.43
72. C22U G52A C88U  -5.75
73. C11G C22U G113U A119G  -5.79
74. C3A U106G G113U  -6.02
75. C114A G117U C124U  -6.08
76. C28U G42U C49G G69U U126G U130A  -6.32
77. G25A G71A U112C  -6.36
78. A46C C53G G57C A66C C115U G122A  -6.53
79. A5U G17A G69A C79U G113U  -6.54
80. C28G G60U C80U C115U G120C C123A U131A  -6.73
81. G10U G17U C56U U109A G110C A118G C123A  -6.9
82. C4A C8A G36A C72G C99G C104A C124U  -6.92
83. U7G C31G U38A G69A C80U C101G G120A  -7.18

— the RNAGym collection of RNA variant scans (doi:10.1073/pnas.2313332121)
